Assay results published in the supplement of paper PMC9112550, “Optimization of the antimicrobial peptide Bac7 by deep mutational scanning” (BMC Biology, 2022).

System: Escherichia coli TOP10
Assay: shrunken log2 fold change of peptide-encoding DNA abundance (4.5 h post-induction vs induction); higher = less antimicrobial activity (less host growth inhibition)
Conditions: time post-induction: 4.5 h; library: site-saturation at positions 5, 18, 19, 20
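Further: peptides expressed intracellularly from a pBAD plasmid library in pooled LB shake-flask culture, induced with 0.3% L-arabinose, DNA abundance read by NGS, three biological replicates, DESeq2 with apeglm shrinkage.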

| Sequence | shrunken log2 fold change |
| --- | --- |
| RRIRFRPPRLPRPRPRPSERPRP | -0.0251 |
| RRIRFRPPRLPRPRPRPSFMPRP | -0.393 |
| RRIRFRPPRLPRPRPRPSIIPRP | -0.279 |
| RRIRFRPPRLPRPRPRPSILPRP | -0.442 |
| RRIRFRPPRLPRPRPRPSKHPRP | 0.0257 |
| RRIRFRPPRLPRPRPRPSKLPRP | -0.42 |
| RRIRFRPPRLPRPRPRPSMAPRP | 0.0143 |
| RRIRFRPPRLPRPRPRPSNKPRP | -0.0849 |
| RRIRFRPPRLPRPRPRPSNNPRP | -0.702 |
| RRIRFRPPRLPRPRPRPSQIPRP | -0.253 |
| RRIRFRPPRLPRPRPRPSQQPRP | -0.277 |
| RRIRFRPPRLPRPRPRPSQSPRP | -0.0504 |
| RRIRFRPPRLPRPRPRPSQVPRP | -0.398 |
| RRIRFRPPRLPRPRPRPSSTPRP | -0.325 |
| RRIRFRPPRLPRPRPRPSTDPRP | -0.667 |
| RRIRFRPPRLPRPRPRPSTIPRP | -0.45 |
| RRIRFRPPRLPRPRPRPSTLPRP | -0.757 |
| RRIRFRPPRLPRPRPRPSWTPRP | -0.561 |
| RRIRFRPPRLPRPRPRPSYGPRP | -0.37 |
| RRIRFRPPRLPRPRPRPSYIPRP | -0.41 |
| RRIRFRPPRLPRPRPRPTAIPRP | -0.0113 |
| RRIRFRPPRLPRPRPRPTCLPRP | -0.249 |
| RRIRFRPPRLPRPRPRPTEEPRP | 0.0249 |
| RRIRFRPPRLPRPRPRPTIEPRP | -0.037 |
| RRIRFRPPRLPRPRPRPTNDPRP | -0.414 |

| Sequence | shrunken log2 fold change |
| --- | --- |
| RRIRFRPPRLPRPRPRPTNLPRP | -0.291 |
| RRIRFRPPRLPRPRPRPTPCPRP | 0.107 |
| RRIRFRPPRLPRPRPRPTPGPRP | 0.677 |
| RRIRFRPPRLPRPRPRPTPTPRP | 0.471 |
| RRIRFRPPRLPRPRPRPTPWPRP | 0.421 |
| RRIRFRPPRLPRPRPRPTQLPRP | 0.364 |
| RRIRFRPPRLPRPRPRPTRPPRP | 0.776 |
| RRIRFRPPRLPRPRPRPTRRPRP | 0.928 |
| RRIRFRPPRLPRPRPRPTRYPRP | 0.172 |
| RRIRFRPPRLPRPRPRPTTGPRP | -0.0819 |
| RRIRFRPPRLPRPRPRPTTKPRP | -0.167 |
| RRIRFRPPRLPRPRPRPTVAPRP | 0.226 |
| RRIRFRPPRLPRPRPRPTVDPRP | -0.175 |
| RRIRFRPPRLPRPRPRPTVHPRP | -0.238 |
| RRIRFRPPRLPRPRPRPTWEPRP | -0.0897 |
| RRIRFRPPRLPRPRPRPTWTPRP | -0.11 |
| RRIRFRPPRLPRPRPRPVAQPRP | 0.0899 |
| RRIRFRPPRLPRPRPRPVASPRP | 0.0266 |
| RRIRFRPPRLPRPRPRPVATPRP | 0.547 |
| RRIRFRPPRLPRPRPRPVAWPRP | 0.119 |
| RRIRFRPPRLPRPRPRPVCLPRP | -0.121 |
| RRIRFRPPRLPRPRPRPVDAPRP | 0.183 |
| RRIRFRPPRLPRPRPRPVDMPRP | 0.00603 |
| RRIRFRPPRLPRPRPRPVFMPRP | -0.0805 |
| RRIRFRPPRLPRPRPRPVFYPRP | -0.536 |

| Sequence | shrunken log2 fold change |
| --- | --- |
| RRIRFRPPRLPRPRPRPVGNPRP | 0.294 |
| RRIRFRPPRLPRPRPRPVIRPRP | -0.68 |
| RRIRFRPPRLPRPRPRPVLTPRP | -0.213 |
| RRIRFRPPRLPRPRPRPVMVPRP | -1.14 |
| RRIRFRPPRLPRPRPRPVNDPRP | -0.0167 |
| RRIRFRPPRLPRPRPRPVPDPRP | -0.136 |
| RRIRFRPPRLPRPRPRPVPVPRP | 0.143 |
| RRIRFRPPRLPRPRPRPVRGPRP | 0.576 |
| RRIRFRPPRLPRPRPRPVSDPRP | 0.00637 |
| RRIRFRPPRLPRPRPRPVTVPRP | -0.264 |
| RRIRFRPPRLPRPRPRPVVFPRP | -0.119 |
| RRIRFRPPRLPRPRPRPVVYPRP | -0.127 |
| RRIRFRPPRLPRPRPRPVWEPRP | 0.00583 |
| RRIRFRPPRLPRPRPRPVWFPRP | -0.182 |
| RRIRFRPPRLPRPRPRPVYLPRP | -0.721 |
| RRIRFRPPRLPRPRPRPWDCPRP | 0.00208 |
| RRIRFRPPRLPRPRPRPWDRPRP | -0.167 |
| RRIRFRPPRLPRPRPRPWDYPRP | -0.387 |
| RRIRFRPPRLPRPRPRPWEAPRP | -0.0969 |
| RRIRFRPPRLPRPRPRPWGGPRP | 0.162 |
| RRIRFRPPRLPRPRPRPWHMPRP | -0.121 |
| RRIRFRPPRLPRPRPRPWIKPRP | -0.187 |
| RRIRFRPPRLPRPRPRPWIRPRP | -0.205 |
| RRIRFRPPRLPRPRPRPWIWPRP | 0.0425 |
| RRIRFRPPRLPRPRPRPWKHPRP | -0.587 |

| Sequence | shrunken log2 fold change |
| --- | --- |
| RRIRFRPPRLPRPRPRPWKKPRP | -0.00973 |
| RRIRFRPPRLPRPRPRPWLLPRP | -0.343 |
| RRIRFRPPRLPRPRPRPWLSPRP | -0.129 |
| RRIRFRPPRLPRPRPRPWMDPRP | -0.347 |
| RRIRFRPPRLPRPRPRPWMFPRP | -0.451 |
| RRIRFRPPRLPRPRPRPWMNPRP | -0.708 |
| RRIRFRPPRLPRPRPRPWMVPRP | -0.227 |
| RRIRFRPPRLPRPRPRPWNGPRP | 0.228 |
| RRIRFRPPRLPRPRPRPWNLPRP | 0.0325 |
| RRIRFRPPRLPRPRPRPWNPPRP | -0.222 |
| RRIRFRPPRLPRPRPRPWPCPRP | -0.229 |
| RRIRFRPPRLPRPRPRPWPGPRP | 0.112 |
| RRIRFRPPRLPRPRPRPWPMPRP | -0.117 |
| RRIRFRPPRLPRPRPRPWQHPRP | -0.0848 |
| RRIRFRPPRLPRPRPRPWQLPRP | -0.234 |
| RRIRFRPPRLPRPRPRPWRVPRP | 0.0748 |
| RRIRFRPPRLPRPRPRPWSAPRP | -0.429 |
| RRIRFRPPRLPRPRPRPWSGPRP | -0.221 |
| RRIRFRPPRLPRPRPRPWTIPRP | -0.238 |
| RRIRFRPPRLPRPRPRPWTLPRP | -0.259 |
| RRIRFRPPRLPRPRPRPWTTPRP | -0.0381 |
| RRIRFRPPRLPRPRPRPWVHPRP | 0.0589 |
| RRIRFRPPRLPRPRPRPWVRPRP | 0.0245 |
| RRIRFRPPRLPRPRPRPWYNPRP | -0.134 |
| RRIRFRPPRLPRPRPRPYAKPRP | -0.552 |

| Sequence | shrunken log2 fold change |
| --- | --- |
| RRIRFRPPRLPRPRPRPYCAPRP | -0.517 |
| RRIRFRPPRLPRPRPRPYDCPRP | 0.0187 |
| RRIRFRPPRLPRPRPRPYEFPRP | -0.245 |
| RRIRFRPPRLPRPRPRPYGEPRP | -0.0721 |
| RRIRFRPPRLPRPRPRPYGSPRP | -0.182 |
| RRIRFRPPRLPRPRPRPYHEPRP | -0.26 |
| RRIRFRPPRLPRPRPRPYHNPRP | -0.882 |
| RRIRFRPPRLPRPRPRPYHQPRP | -0.963 |
| RRIRFRPPRLPRPRPRPYIHPRP | -0.932 |
| RRIRFRPPRLPRPRPRPYLMPRP | -0.687 |
| RRIRFRPPRLPRPRPRPYLYPRP | -0.498 |
| RRIRFRPPRLPRPRPRPYMRPRP | 0.00487 |
| RRIRFRPPRLPRPRPRPYNSPRP | -0.136 |
| RRIRFRPPRLPRPRPRPYPFPRP | -0.69 |
| RRIRFRPPRLPRPRPRPYPMPRP | -0.119 |
| RRIRFRPPRLPRPRPRPYPRPRP | -0.6 |
| RRIRFRPPRLPRPRPRPYQLPRP | -0.573 |
| RRIRFRPPRLPRPRPRPYRRPRP | -0.506 |
| RRIRFRPPRLPRPRPRPYTCPRP | -0.22 |
| RRIRFRPPRLPRPRPRPYWKPRP | -0.0922 |
| RRIRFRPPRLPRPRPRPYYWPRP | -0.485 |
| RRIRGRPPRLPRPRPRPAASPRP | 0.947 |
| RRIRGRPPRLPRPRPRPACMPRP | 0.671 |
| RRIRGRPPRLPRPRPRPADQPRP | 0.887 |
| RRIRGRPPRLPRPRPRPAERPRP | 0.388 |

| Sequence | shrunken log2 fold change |
| --- | --- |
| RRIRGRPPRLPRPRPRPAETPRP | -0.0775 |
| RRIRGRPPRLPRPRPRPAFYPRP | 0.178 |
| RRIRGRPPRLPRPRPRPAIFPRP | 0.583 |
| RRIRGRPPRLPRPRPRPAIWPRP | 0.396 |
| RRIRGRPPRLPRPRPRPAKMPRP | 0.538 |
| RRIRGRPPRLPRPRPRPAKWPRP | 0.747 |
| RRIRGRPPRLPRPRPRPALDPRP | 1.4 |
| RRIRGRPPRLPRPRPRPALLPRP | 1.14 |
| RRIRGRPPRLPRPRPRPALNPRP | 0.705 |
| RRIRGRPPRLPRPRPRPAMAPRP | 0.913 |
| RRIRGRPPRLPRPRPRPAMTPRP | 1.48 |
| RRIRGRPPRLPRPRPRPAPGPRP | 1.12 |
| RRIRGRPPRLPRPRPRPAQPPRP | 0.377 |
| RRIRGRPPRLPRPRPRPASDPRP | 0.987 |
| RRIRGRPPRLPRPRPRPASVPRP | 0.454 |
| RRIRGRPPRLPRPRPRPATPPRP | 1.83 |
| RRIRGRPPRLPRPRPRPATWPRP | 0.565 |
| RRIRGRPPRLPRPRPRPAWVPRP | 0.456 |
| RRIRGRPPRLPRPRPRPCACPRP | 0.225 |
| RRIRGRPPRLPRPRPRPCAYPRP | 0.0946 |
| RRIRGRPPRLPRPRPRPCDCPRP | -0.0193 |
| RRIRGRPPRLPRPRPRPCDFPRP | 0.102 |
| RRIRGRPPRLPRPRPRPCDMPRP | 0.22 |
| RRIRGRPPRLPRPRPRPCEMPRP | 0.852 |
| RRIRGRPPRLPRPRPRPCEWPRP | -0.01 |
